Patent US20180185459A1 (PORTOLA PHARMACEUTICALS, published 2018)
Changes are numbered by the printed parent chain. Blank lines part the entries; values can stand above or below the binder they belong to.

Experiments:
[1] = molecular target: T1, cofactor factor Va of the prothrombinase complex (endogenous, in human plasma), P12259
T1 chain 1: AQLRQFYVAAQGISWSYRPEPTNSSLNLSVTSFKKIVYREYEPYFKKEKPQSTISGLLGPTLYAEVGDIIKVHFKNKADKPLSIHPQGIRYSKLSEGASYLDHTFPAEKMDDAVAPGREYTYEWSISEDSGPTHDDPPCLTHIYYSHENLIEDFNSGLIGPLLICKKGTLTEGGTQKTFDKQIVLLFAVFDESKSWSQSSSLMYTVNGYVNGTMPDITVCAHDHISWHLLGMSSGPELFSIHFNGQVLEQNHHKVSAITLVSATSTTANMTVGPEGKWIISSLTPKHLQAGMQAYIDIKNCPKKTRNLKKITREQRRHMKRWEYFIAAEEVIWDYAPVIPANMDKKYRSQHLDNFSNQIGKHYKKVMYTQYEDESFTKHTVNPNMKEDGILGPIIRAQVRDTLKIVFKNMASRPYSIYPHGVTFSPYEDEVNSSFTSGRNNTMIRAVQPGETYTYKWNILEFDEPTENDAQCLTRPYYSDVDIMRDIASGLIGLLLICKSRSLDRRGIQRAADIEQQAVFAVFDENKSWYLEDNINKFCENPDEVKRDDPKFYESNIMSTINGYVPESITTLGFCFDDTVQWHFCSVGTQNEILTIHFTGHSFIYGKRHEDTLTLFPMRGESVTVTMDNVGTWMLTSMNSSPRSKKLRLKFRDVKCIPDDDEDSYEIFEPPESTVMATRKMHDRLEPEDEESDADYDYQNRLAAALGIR
T1 chain 2: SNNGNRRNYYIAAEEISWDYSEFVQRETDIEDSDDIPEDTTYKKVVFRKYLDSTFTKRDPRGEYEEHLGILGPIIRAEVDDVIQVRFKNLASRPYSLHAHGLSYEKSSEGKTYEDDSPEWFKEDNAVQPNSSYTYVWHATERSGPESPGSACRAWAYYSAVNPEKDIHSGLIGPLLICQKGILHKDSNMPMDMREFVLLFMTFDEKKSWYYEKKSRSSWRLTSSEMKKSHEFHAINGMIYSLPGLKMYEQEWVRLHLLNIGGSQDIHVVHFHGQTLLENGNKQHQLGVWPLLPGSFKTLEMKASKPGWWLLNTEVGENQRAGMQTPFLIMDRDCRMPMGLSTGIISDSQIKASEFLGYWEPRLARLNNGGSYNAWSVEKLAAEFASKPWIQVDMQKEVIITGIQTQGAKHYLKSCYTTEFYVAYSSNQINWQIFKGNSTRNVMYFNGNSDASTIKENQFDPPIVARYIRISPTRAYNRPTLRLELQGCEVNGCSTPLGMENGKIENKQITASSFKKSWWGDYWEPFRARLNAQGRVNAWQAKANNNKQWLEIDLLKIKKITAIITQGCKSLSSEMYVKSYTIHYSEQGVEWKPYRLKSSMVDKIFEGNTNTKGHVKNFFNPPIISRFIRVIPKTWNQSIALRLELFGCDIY

[2] = molecular target: ATIII-fondaparinux complex (human antithrombin III with fondaparinux bound) (human, UniProt P01008 33-464, non-covalently bound fondaparinux (synthetic pentasaccharide)); test: cell-based or functional assay
Chain of ATIII-fondaparinux complex (human antithrombin III with fondaparinux bound) (P01008 33-464 limits assumed, one chain of several): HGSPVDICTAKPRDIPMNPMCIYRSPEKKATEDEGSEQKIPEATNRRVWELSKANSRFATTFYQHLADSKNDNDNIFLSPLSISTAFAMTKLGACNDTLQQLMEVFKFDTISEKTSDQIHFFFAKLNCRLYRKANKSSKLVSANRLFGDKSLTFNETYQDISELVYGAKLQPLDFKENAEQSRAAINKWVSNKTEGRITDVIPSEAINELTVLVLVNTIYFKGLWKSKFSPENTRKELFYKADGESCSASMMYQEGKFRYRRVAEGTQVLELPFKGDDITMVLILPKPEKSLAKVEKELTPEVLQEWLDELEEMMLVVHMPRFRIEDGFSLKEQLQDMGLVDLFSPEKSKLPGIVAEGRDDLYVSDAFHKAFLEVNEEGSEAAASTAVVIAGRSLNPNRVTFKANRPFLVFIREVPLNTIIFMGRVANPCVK

B1: EGR-Xa, active site inhibited full length human fXa (human plasma derived) (protein)
chain 1: ANSFLEEMKKGHLERECMEETCSYEEAREVFEDSDKTNEFWNKYKDGDQCETSPCQNQGKCKDGLGEYTCTCLEGFEGKNCELFTRKLCSLDNGDCDQFCHEEQNSVVCSCARGYTLADNGKACIPTGPYPCGKQTLER
chain 2: IVGGQECKDGECPWQALLINEENEGFCGGTILSEFYILTAAHCLYQAKRFKVRVGDRNTEQEEGGEAVHEVEVVIKHNRFTKETYDFDIAVLRLKTPITFRMNVAPACLPERDWAESTLMTQKTGIVSGFGRTHEKGRQSTRLKMLEVPYVDRNSCKLSSSFIITQNMFCAGYDTKQEDACQGDSGGPHVTRFKDTYFVTGIVSWGEGCARKGKYGIYTKVTAFLKWIDRSMKTRGLPKAKSHAPEVITSSPLK
IIa formation (RFU) in tissue factor-initiated thrombin generation in human plasma against EGR-Xa concentration [1]: circles: falls steeply from about 380,000 RFU at 0 nM to about 180,000 and about 85,000 RFU at the next points, below 50,000 RFU by about 100 nM and about 10,000 RFU at about 500 nM

IC50 (read off the curve): r-Antidote concentration that halves kiapp of fXa inhibition by the ATIII-fondaparinux complex [2]: ~100 nM
B2: r-Antidote (processed two-chain polypeptide, human factor Xa triple mutant after removal of the -RKRRKR- linker) (other)
chain 1: ANSFLFWNKYKDGDQCETSPCQNQGKCKDGLGEYTCTCLEGFEGKNCELFTRKLCSLDNGDCDQFCHEEQNSVVCSCARGYTLADNGKACIPTGPYPCGKQTLER
chain 2: B1 chain 2 with S185A
